The values that follow come from the DeepSol protein solubility set.

This data set can be described thus: soluble on expression in E. coli; label from the status in PepcDB or PDB records.
As for “VTVTLCSPTEDDWPGMFLLAAASFTDFIGPESATAWRTLVPTDGAVVVRDGAGPGSEVVGMALYMDLRLTVPGEVVLPTAGLSFVAVAPTHRRRGLLRAMCAELHRRIADSGYPVAALHASEGGIYGRFGYGPATTLHELTVDRRFARFHADAPGGGLGGSSVRLVRPTEHRGEFEAIYERWRQQVPGGLLRPQVLWDELLAECKAAPGGDRESFALLHPDGYALYRVDRTDLKLARVSELRAVTADAHCALWRALIGLDSMERISIITHPQDPLPHLLTDTRLARTTWRQDGLWLRIMNVPAALEARGYAHEVGEFSTVLEVSDGGRFALKIGDGRARCTPTDAAAEIEMDRDVLGSLYLGAHRASTLAAANRLRTKDSQLLRRLDAAFASDVPVQTAFEF”, the “soluble on expression in E. coli” value is recorded as “not soluble”.
For the sequence “VVAPITTGYTVKISNYGWDQSDKFVKIYITLTGVHQVPTENVQVHFTERSFDLLVKNLNGKSYSMIVNNLLKPISVEGSSKKVKTDTVLILCRKKVENTRWDYLTQVEKECKEK”, the “soluble on expression in E. coli” value is given as “soluble”.
Consider “VVKLAFPRELRLLTPSQFTFVFQQPQRAGTPQITILGRLNSLGHPRIGLTVAKKNVRRAHERNRIKRLTRESFRLRQHELPAMDFVVVAKKGVADLDNRALSEALEKLWRRHCRLARGS”, for which the “soluble on expression in E. coli” value is listed as “soluble”.
For “VVKQDLSDNQYIQKKPNEITSNELLLPLPNDKLLGDPKAPILMIEYASLTCYHCSLFHRNVFPKIKEKYIDTGKMLYIFRHFPLDYRGLKAAMLSHCYEKQEDYFNFNKAVFNSIDSWNYYNLSDLTLLQRIAALSNLKQDAFNQCINDKKIMDKIVNDKSLAINKLGITAVPIFFIKLNDDKSYIEHNKVKHGGYKELKYFTNVIDKLYGKAIVKLEHHHHHHHH” the value was “soluble”.
As for “VVPAQHRPPDRPGDPAHDPGRGRRLGIDVGAARIGVACSDPDAILATPVETVRRDRSGKHLRRLAALAAELEAVEVIVGLPRTLADRIGRSAQDAIELAEALARRVSPTPVRLADERLTTVSAQRSLRQAGVRASEQRAVIDQAAAVAILQSWLDERLAAMAGTQEGSDA”, the “soluble on expression in E. coli” value was “not soluble”.
“VYGDIWGFETDRYFTKDDFNADGSYKEGIASQKKLEQDGFVYGPGDIKFKDLNNDKEINGGEGTVKDHGDLKVIGNTTPRYQYGFRLGGEWKGIDIDMFFQGVGKCDAWTQSAFVMPMMRGADAIYANQANYWTDENPDPNADFPRMWPGNAGKGTVSVLDLGNHNFYPQSKYLVNMAYLRFKNLTIGYTLPKDWTRKVYMDKVRVYFSANNICELINKSNAPVDPEVNTSEAIANGGSSDYGNGTWGRVDPMYRTVSFGLQVTF”: the “soluble on expression in E. coli” value is recorded as “not soluble”.
Turning to “WKTTLKLTLDNVVKLEKLKPLVEDFYREFEFAELQINMEVFNGSWEAIAQGRADIVVGATSAVPVGGDFEVKDMGVLDWAFVMSPAHPCVRQQVLTEEFVSQFPAICLDDTSNVLPKRHTGHYAKQRRLLLPNWYSAIECLKNGVGVGYMPRHIAMPLIHEGVLVEKLLQDDKPLSRCCLVWRKDDDHKLIQWMVDYLGSPNQLHQDWLQC”, the “soluble on expression in E. coli” value is “soluble”.
Consider “WRKKRKDAKNNEVSFSQIKPKKSKLIRVENFEAYFKKQQADSNCGFAEEYEDLKLIGISLPKYAAEIAENRGKNRYNNVLPYDISRVKLSVQTHSTDDYINANYMPGYHSKKDFIATQGPLPNTLKDFWRMVWEKNVYAIVMLTKCVEQGRTKCEEYWPSKQAQDYGDITVAMTSEVVLPEWTIRDFVVKNMQSSESHPLRQFHFTSWPDHGVPDTTDLLINFRYLVRDYMKQIPPESPILVHCSAGVGRTGTFIAIDRLIYQIENENTVDVYGIVYDLRMHRPLMVQTEDQYVFLNQCVLDIIRAQKDSKVDLIYQNTTAMTIYENLERVSMFGKANGYIA”, for which the “soluble on expression in E. coli” value is “soluble”.
For the sequence “WTCNKFRCGEKRLTRSLCACSDDCKDQGDCCINYSSVCQGEKS”, the “soluble on expression in E. coli” value is reported as “soluble”.
In the case of “WYGSPQFDGKYVHWDHPLLPHWDPKVASSYSTGRHQPPEDIGANFYPALGPYSSRDPAVLEEHMRQLRMAAVGVLAVSWYPRSMKDDNGEEIDSLLPLILDAADKYQLKVLYNLYVFKNVICINKYV”, the “soluble on expression in E. coli” value is reported as “soluble”.
As to “YAYKSNTYFKLKKKNIKLNGNIIKKSCKLGIPVALQNSLIAFSLIVLQKVVNGYGATFTTAFTVVSRIETLVQQPFMSLGAAVSTYTGQNIGAGLKDRVRKGFN”, the “soluble on expression in E. coli” value is given as “not soluble”.
With “YGKQRKASVIGAINTVSMNELKMPVAKLSSGLAGQLAGIVVMQRSGEPGAGADFWIRGINTFGAGNKPLVLVDGVERSMDLVDVEDIASFSILKDATATALYGVRGANGIVLITTKRGTES”, the “soluble on expression in E. coli” value is reported as “not soluble”.
For “YPFYAQYNYDSPREATGKIVCANCHLAKKTVEIEVPQAVLPDTVFKAVVKVPYDLDIQQVQADGSPSGLNVGAVLMLPEGFKLAPPERVDEELMEEVGDFYYLVTPYSETDENILLAGPLPGEDYQEMIFPILSPNPATDAGVYFGKYSIHLGGNRGRGQVYPTGELSNNNAFSASIAGTIAAIEDNGFGFDVTIQPEDGDAVVTSILPGPELIVAVGDTVEAGQLLTTNPNVGGFGQMDSEIVLQSSS”, the “soluble on expression in E. coli” value is listed as “soluble”.
“YSSAYKEFIKKSMKYRTEEDTFTDANGLAGCRYWSPKNYEKIARMMAQPKYKPAFAYLFFFRSYVNDQQITSCVFQVQRDGMPESILVQPVLRDESSVTLE”: the “soluble on expression in E. coli” value was “not soluble”.
